Common to all, as to details: both partners purified
The target in assay [1] is T1, mouse importin α2 lacking residues 1-70 (IMPα2ΔIBB) (mouse, UniProt P52293 71-529). The assay is described as follows: crystal structure; co-purified complex of AAV6 VP1-BR and IMPα2; hanging drop, 0.7 M sodium citrate, 0.01 M dithiothreitol, 0.1 M HEPES pH 7.5, 22°C; 2.3 Å.
Assay [2] concerns the target T2, human importin α5 lacking the IBB domain (hIMP5ΔIBB) (human, UniProt P52294 58-538).
T2 construct: pET30a, His tag with TEV site; also called IMPα5; ΔIBB-IMPα5
The assay is described as follows: fluorescence polarisation; FITC-tagged AAV6 VP1-BR peptide at 2 nM; importin isoforms serially diluted from an upper concentration of 4.5 µM; three independent experiments.

For assay [3], the target named is T1, mouse importin α2 lacking residues 1-70 …. The description is as above.
In assay [4] the target is T3, human importin α3 lacking the IBB domain (hIMPα3ΔIBB) (human, UniProt O00629 59-521).
T3 construct: pET30a, His tag with TEV site; also called ΔIBB-IMPα3
T3 sequence (looked up): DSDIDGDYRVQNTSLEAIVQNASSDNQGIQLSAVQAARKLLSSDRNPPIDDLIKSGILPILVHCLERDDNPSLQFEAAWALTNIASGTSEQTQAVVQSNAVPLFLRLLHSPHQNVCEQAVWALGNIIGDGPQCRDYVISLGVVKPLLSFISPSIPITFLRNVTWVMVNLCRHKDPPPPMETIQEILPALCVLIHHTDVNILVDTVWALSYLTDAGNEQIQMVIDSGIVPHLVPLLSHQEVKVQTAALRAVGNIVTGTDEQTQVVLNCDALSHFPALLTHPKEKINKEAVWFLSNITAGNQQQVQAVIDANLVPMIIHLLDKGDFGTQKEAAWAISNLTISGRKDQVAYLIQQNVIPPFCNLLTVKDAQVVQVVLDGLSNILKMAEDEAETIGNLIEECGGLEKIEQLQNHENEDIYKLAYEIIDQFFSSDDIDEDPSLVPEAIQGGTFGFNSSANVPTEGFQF
The description is as above.

Assay [5] addresses T4, human importin α7 lacking the IBB domain (hIMPα7ΔIBB) (human, UniProt O60684 61-536).
T4 construct: pET30a, His tag with TEV site; also called ΔIBB-IMPα7
Described as above.

The Kd is the free concentration of one partner at which half of the binding sites on the other are occupied at equilibrium, for simple one-to-one binding. Higher therefore signals a looser complex.

Several values for one entry are separate records, joined by “and”; a condition that tells them apart may be missing. Identical values can stand only once. Primed or numbered codes have the meaning given here. Ends that are not written are not given here. FITC′ = fluorescein isothiocyanate; Ahx = NCCCCCC(=O)O

T4 sequence (O60684 61-536, stated change not applied): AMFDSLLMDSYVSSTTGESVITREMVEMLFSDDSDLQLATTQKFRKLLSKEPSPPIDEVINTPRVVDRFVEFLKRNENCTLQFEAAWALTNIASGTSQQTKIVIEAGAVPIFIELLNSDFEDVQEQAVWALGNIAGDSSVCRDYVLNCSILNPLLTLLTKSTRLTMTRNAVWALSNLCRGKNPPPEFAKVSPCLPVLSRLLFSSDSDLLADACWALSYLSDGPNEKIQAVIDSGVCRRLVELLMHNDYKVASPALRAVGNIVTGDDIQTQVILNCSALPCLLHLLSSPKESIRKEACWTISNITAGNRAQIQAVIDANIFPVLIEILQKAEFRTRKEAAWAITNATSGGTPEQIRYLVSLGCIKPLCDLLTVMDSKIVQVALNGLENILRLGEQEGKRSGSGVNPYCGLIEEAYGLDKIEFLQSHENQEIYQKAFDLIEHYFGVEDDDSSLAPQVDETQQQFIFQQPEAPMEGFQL
T2 sequence (P52294 58-538, stated change not applied): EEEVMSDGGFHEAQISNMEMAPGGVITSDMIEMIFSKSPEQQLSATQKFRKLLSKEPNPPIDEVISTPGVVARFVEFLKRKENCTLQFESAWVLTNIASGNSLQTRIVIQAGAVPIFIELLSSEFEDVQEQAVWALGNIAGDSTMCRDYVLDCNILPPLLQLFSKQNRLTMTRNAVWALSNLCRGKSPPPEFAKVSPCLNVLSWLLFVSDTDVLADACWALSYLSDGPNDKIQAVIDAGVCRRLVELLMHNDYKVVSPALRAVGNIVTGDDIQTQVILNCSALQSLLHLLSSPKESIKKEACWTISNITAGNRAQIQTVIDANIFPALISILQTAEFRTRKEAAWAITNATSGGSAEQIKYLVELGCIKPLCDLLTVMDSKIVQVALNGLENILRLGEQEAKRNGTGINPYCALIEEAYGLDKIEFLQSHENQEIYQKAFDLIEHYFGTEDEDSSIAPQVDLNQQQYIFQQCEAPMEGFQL

B1: AAV6 VP1-BR (recombinant, residues 115-174) (domain or fragment)
chain: GRAVFQAKKRVLEPFGLVEEGAKTAPGKKRPVEQSPQEPDSSSGIGKTGQQPAKKRLNFG
notes: A TEV protease site stands upstream of the insert 'for GST-tag cleavage'; 15 residues of it are seen in the final model; also called AAV6 VP1 basic region; source: E. coli (codon optimized, pGEX4T-1), co-purified with IMPα2
Turning to B1, the binding result in assay [1] is on record as “binds”.

B2: AAV6 VP1-BR FITC-tagged peptide (residues 120-172) (peptide)
peptide: {FITC′-Ahx}-QAKKRVLEPFGLVEEGAKTAPGKKRPVEQSPQEPDSSSGIGKTGQQPAKKRLN
notes: also called FITC-tagged AAV6 VP1-BR; AAV6 VP1-BR FITC peptide; source: synthetic peptide (GenScript)
Take B2: the Kd in assay [2] was 71 nM; in assay [3], 265 nM; in assay [4], 198 nM; in assay [5], 23 nM and 24 nM.

For the origin of these results see publication PMC11784021, “Structural basis for nuclear import of adeno-associated virus serotype 6 capsid protein” (Journal of Virology, 2024).
